Assay results: patent US20250163116A1, “NEW METHOD TO TREAT INFECTIOUS DISEASES” (INSERM (INSTITUT NATIONAL DE LA SANTÉ ET DE LA RECHERCHE …, priority 2022, published 2025)

B1: ANGPTL4: Recombinant human ANGPTL4 (Angiopoietin-like 4), full length, SEQ ID NO: 1, purchased from R&D Systems (protein, listed as Homo sapiens)
chain: MSGAPTAGAALMLCAATAVLLSAQGGPVQSKSPRFASWDEMNVLAHGLLQLGQGLREHAERTRSQLSALERRLSACGSACQGTEGSTDLPLAPESRVDPEVLHSLQTQLKAQNSRIQQLFHKVAQQQRHLEKQHLRIQHLQSQFGLLDHKHLDHEVAKPARRKRLPEMAQPVDPAHNVSRLHRLPRDCQELFQVGERQSGLFEIQPQGSPPFLVNCKMTSDGGWTVIQRRHDGSVDFNRPWEAYKAGFGDPHGEFWLGLEKVHSITGDRNSRLAVQLRDWDGNAELLQFSVHLGGEDTAYSLQLTAPVAGQLGATTVPPSGLSVPFSTWDQDHDLRRDKNCAKSLSGGWWFGTCSHSNLNGQYFRSIPQQRQKLKKGIFWKTWRGRYYPLQATTMLIQPMAAEAAS
B2: cANGPTL4: C-terminal fragment of ANGPTL4, aa 164-406, fibrinogen-like domain, purchased from R&D Systems (protein, listed as Homo sapiens)
chain: RLPEMAQPVDPAHNVSRLHRLPRDCQELFQVGERQSGLFEIQPQGSPPFLVNCKMTSDGGWTVIQRRHDGSVDFNRPWEAYKAGFGDPHGEFWLGLEKVHSITGDRNSRLAVQLRDWDGNAELLQFSVHLGGEDTAYSLQLTAPVAGQLGATTVPPSGLSVPFSTWDQDHDLRRDKNCAKSLSGGWWFGTCSHSNLNGQYFRSIPQQRQKLKKGIFWKTWRGRYYPLQATTMLIQPMAAEAAS
B3: nANGPTL4: N-terminal fragment of ANGPTL4, aa 26-164, SEQ ID NO: 24, purchased from R&D Systems (protein)
chain: GPVQSKSPRFASWDEMNVLAHGLLQLGQGLREHAERTRSQLSALERRLSACGSACQGTEGSTDLPLAPESRVDPEVLHSLQTQLKAQNSRIQQLFHKVAQQQRHLEKQHLRIQHLQSQFGLLDHKHLDHEVAKPARRK
modifications: nANGPTL4

What follows are molecules tested on HDMECs infected with Nm 2C4.3 (assay: Integrity of HDMEC monolayers infected with N. meningitidis (VE-cadherin at intercellular junctions, immunofluorescence)). Settings: 1 μg/mL added 30 min after initiation of Nm infection, 2 h 30.
Type: cell-based, human
Method: FIG. 1. Exogenous ANGPTL4 exerts protective effects on dermal microvascular endothelial cells infected by N. meningitidis. A. HDMECs were infected with Nm 2C4.3 for 30 min and treated with 1 μg/mL of recombinant human ANGPTL4 for 2 h 30. Cells were fixed and stained for cellular actin, VE-cadherin and DAPI and analyzed by fluorescent microscopy. Quantifications of VE-cadherin enrichment at intercellular junctions and of intercellular spaces area were performed on 30 fields with Image J software. Kruskal-Wallis test ** P<0.001; P<0.0001. B. HDMEC were either uninfected or infected with N. meningitidis 2C4.3 for 30 min and treated with 1 μg mL−1 of recombinant human ANGPTL4, its N-terminal portion (nANGPTL4) or its C-terminal portion (cANGPTL4) for 2 h 30. Caspase-3/7 reagent was added to detect apoptosis in real time over 9 h using the IncuCyte® Live-Cell Analysis System
FIG. 2: Vascular protection is conferred by the N-terminal part of ANGPTL4. A, Schematic representation of ANGPTL4 structure. ANGPTL4 contains a N-terminal portion (nANGPTL4, aa 26-164) linked to a C-terminal portion (cANGPTL4, aa 164-406) by a cleavable linker. nANGPTL4 contains a highly conserved lipoprotein lipase (LPL) binding domain (aa 44-55), two cysteines on position 76 and 80 involved in protein oligomerization and a coiled-coil domain (aa 100-143). The C-terminal portion encodes a fibrinogen-like domain. B, HDMECs were infected with Nm 2C4.3 for 30 min and treated with 1 μg/mL of recombinant human ANGPTL4, nANGPTL4 or cANGPTL4 for 2 h 30. Cells were fixed and stained for cellular actin, VE-cadherin and DAPI and analyzed by fluorescent microscopy. B. Quantifications of VE-cadherin enrichment at intercellular junctions and of intercellular spaces area were performed on 30 fields with Image J software. Kruskal-Wallis test ** P<0.001, *** P<0.0001 of four independent experiments performed in triplicate.
FIG. 3: Vascular protection is conferred by a novel binding motif (aa 66-80) present in the N-terminal part of ANGPTL4. A, the indicated peptides were derived from nANGPTL4. B, HDMECs were infected with Nm 2C4.3 for 30 min and treated with 1 μg/mL of each peptides. Quantifications of VE-cadherin enrichment at intercellular junctions was performed on 30 fields with Image J software.
FIG. 4: Vascular protection is conferred by interaction of nANGPTL4 with Syndecan-4. A, HDMECs were infected with Nm 2C4.3 for 30 min and treated with 1 μg/mL of recombinant human ANGPTL4, nANGPTL4 or cANGPTL4 in the absence or in the presence of anti-SDC4 antibody for 2 h 30. Cells were fixed and stained for cellular actin, VE-cadherin and DAPI and analysed by fluorescent microscopy. Quantifications of VE-cadherin enrichment at intercellular junctions and of intercellular spaces area were performed on 30 fields with Image J software. Kruskal-Wallis test ** P<0.001, **** P<0.00001, ns1 P=0.2172; ns2 P>0.999 of four independent experiments performed in triplicate. B, HDMECs were transfected with small interfering RNA (siRNA) against SDC4 or non-targeting siRNA controls for 48 h, infected with Nm 2C4.3 for 30 min and treated with 1 μg/mL of recombinant human ANGPTL4, for 2 h 30. Quantifications of VE-cadherin enrichment at intercellular junctions and of intercellular spaces area were performed on 30 fields with Image J software. Kruskal-Wallis test ** P<0.001, *** P<0.0001, of two independent experiments performed in triplicate.
The day of infection, a suspension of the bacteria from an overnight culture on GCB agar plate was adjusted to OD600=0.05 and incubated for 2 h at 37° C. in a pre-warmed cell culture medium. Cells were infected with bacteria at a multiplicity of infection (MOI) of 100 bacteria per cell (OD=0.1) for 30 minutes, washed twice to remove non-adherent bacteria and infection was allowed to proceed for various periods of time. Cells were then washed and fixed in 4% paraformaldehyde for immunofluorescence analysis. […]

Question: For B1, which “protective effect on monolayer integrity (adherens junctions, cell detachment) of infected HDMECs” value (shortened to “protective effect on monolayer integrity”) is on record?
Answer: entirely preserved the integrity of this monolayer

Question: With B2 as the molecule, how does the “protective effect on monolayer integrity” value read?
Answer: no significant protective effect

Question: How did the “protective effect on monolayer integrity” value turn out when B3 was run?
Answer: sufficient to maintain cell monolayer integrity upon infection
